The record followed here is article PMC12781114, “Mechanistic and Molecular Dynamics Studies Reveal that Increased Loop 3 Mobility Alters Substrate Capture in an NADH:Quinone Oxidoreductase” (Biochemistry, 2025).

A word on the Kd: it is a measure of binding affinity in units of concentration. Usually Km stands for the substrate concentration at which the rate is half of its maximum.

Data set [1] deals with T1, NADH:quinone oxidoreductase (NQO-P78G) (Pseudomonas aeruginosa, UniProt Q9I4V0, P78G).
T1 construct: gene PA1024
T1 sequence (Q9I4V0 whole entry P78G): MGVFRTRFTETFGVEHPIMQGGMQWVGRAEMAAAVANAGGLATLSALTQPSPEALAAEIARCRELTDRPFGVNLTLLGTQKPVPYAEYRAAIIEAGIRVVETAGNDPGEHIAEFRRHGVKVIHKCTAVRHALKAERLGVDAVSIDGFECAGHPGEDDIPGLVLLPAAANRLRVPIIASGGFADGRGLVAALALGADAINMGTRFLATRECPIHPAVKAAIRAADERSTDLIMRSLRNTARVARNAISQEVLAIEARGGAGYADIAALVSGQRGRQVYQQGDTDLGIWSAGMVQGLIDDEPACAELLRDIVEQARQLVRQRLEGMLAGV
Kind of data set: anaerobic stopped-flow reductive half-reaction (flavin reduction at […] nm), hyperbolic fit; steady-state kinetics. Format: biochemical.

Data set [2] has as its system COC1=C(OC)C(=O)C(C)=CC1=O. In words: purified protein. It counts as biochemical, Pseudomonas aeruginosa. The conditions noted are these: pH 6.0, 25.0 °C.

In data set [1], `NC(=O)C1=CN([C@@H]2O[C@H](COP(=O)(O)OP(=O)(O)OC[C@H]3O[C@@H](n4cnc5c(N)ncnc54)[C@H](O)[C@@H]3O)[C@@H](O)[C@H]2O)C=CC1` [NADH] registered a Kd of 450 ± 40 µM.

As for “NADH:quinone oxidoreductase (NQO-WT) (Pseudomonas aeruginosa PAO1)”, the Km in data set [2] was found to be 35 ± 6 µM.

As to “NADH:quinone oxidoreductase (NQO-P78G) (Pseudomonas aeruginosa PAO1; P78G)”, in data set [2] (FMN active site pocket, binds the reduced enzyme (ping-pong bi-bi)), the Michaelis-Menten constant (Km) stood at 10 ± 1 µM.
